From patent publication CN112048019A

How the values were obtained:
重组CD47-Fc融合蛋白 (human) = 重组CD47-Fc融合蛋白 (human) (UniProt Q08722); assay: competition ELISA: CD47-Fc coated, antibody blocks binding of SIRPα-His, anti-His-HRP detection
[1] = target: CD47 on human cells (Jurkat target cells; human peripheral blood erythrocytes) (human) (UniProt Q08722); assay: cell-based or functional assay
[2] = target: CD47蛋白 (analyte in the ForteBio assay) (human) (UniProt Q08722); assay: BLI (ForteBio), antibody captured on Protein A sensor, CD47 protein in solution at 6 concentrations

- EC50 (重组CD47-Fc融合蛋白 (human)): 0.143 µM
- 吞噬率/% (macrophage phagocytosis of CFSE-labelled Jurkat cells, flow cytometry) [1]: 18%
- Kd [2]: 0.00716 µM
- koff [2]: 0.000463 s⁻¹
- kon [2]: 64700 M⁻¹ s⁻¹
B1: 市售抗体B6H12 (antibody, from another filing, V domains shown)
VH: EVQLVESGGDLVKPGGSLKLSCAASGFTFSGYGMSWVRQTPDKRLEWVATITSGGTYTYYPDSVKGRFTISRDNAKNTLYLQIDSLKSEDTAIYFCARSLAGNAMDYWGQGTSVTVSS
VL: DIVMTQSPATLSVTPGDRVSLSCRASQTISDYLHWYQQKSHESPRLLIKFASQSISGIPSRFSGSGSGSDFTLSINSVEPEDVGVYYCQNGHGFPRTFGGGTKLEIK
